Measured values reported in patent US20250179144A1.
Blank lines part the entries; values can stand above or below the binder they belong to.

Columns and labels:
[1] = target: full-length human BTN3A1 on transfected cells pre-treated (cross-linked) with anti-BTN3A mAb clone 20.1 (human); experiment: flow cytometry, FRET (YG 670/30) between TCR tetramer-PE and anti-BTN3A 20.1-AF647 on BTN3A1+ NIH-3T3 cells; with IgG1κ-AF647 the gate holds 0.02, with SAv 0
[2] = target: BTN2A1 ectodomain homodimer, disulfide-linked (C-terminal Cys247, acidic or basic leucine zipper) (human) (UniProt Q7KYR7); experiment: SPR, soluble TCR over immobilised BTN2A1 homodimer, KD at equilibrium
BTN2A1 ectodomain homodimer, disulfide-linked (C-terminal Cys247, acidic or basic leucine zipper) (human), sequence (Q7KYR7 29-248, chain 1 of 2): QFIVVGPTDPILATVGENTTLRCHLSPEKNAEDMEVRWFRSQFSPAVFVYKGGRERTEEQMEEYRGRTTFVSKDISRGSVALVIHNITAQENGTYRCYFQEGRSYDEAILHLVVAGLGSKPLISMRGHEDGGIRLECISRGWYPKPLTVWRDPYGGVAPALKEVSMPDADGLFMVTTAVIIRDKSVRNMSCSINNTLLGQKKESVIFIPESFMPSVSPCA
BTN2A1 ectodomain homodimer, disulfide-linked (C-terminal Cys247, acidic or basic leucine zipper) (human), sequence (Q7KYR7 29-248, chain 2 of 2): as the sequence (Q7KYR7 29-248, chain 1 of 2) above

[3] = target: BTN2A1 (WT) and BTN3A1 (WT) co-expressed on NIH-3T3 cells (human) (UniProt Q7KYR7); experiment: flow cytometry on NIH-3T3 cells co-transfected with BTN2A1 WT and BTN3A1 WT, zoledronate (100 µM)
BTN2A1 (WT) and BTN3A1 (WT) co-expressed on NIH-3T3 cells (human), sequence (Q7KYR7 29-527, chain 1 of 2): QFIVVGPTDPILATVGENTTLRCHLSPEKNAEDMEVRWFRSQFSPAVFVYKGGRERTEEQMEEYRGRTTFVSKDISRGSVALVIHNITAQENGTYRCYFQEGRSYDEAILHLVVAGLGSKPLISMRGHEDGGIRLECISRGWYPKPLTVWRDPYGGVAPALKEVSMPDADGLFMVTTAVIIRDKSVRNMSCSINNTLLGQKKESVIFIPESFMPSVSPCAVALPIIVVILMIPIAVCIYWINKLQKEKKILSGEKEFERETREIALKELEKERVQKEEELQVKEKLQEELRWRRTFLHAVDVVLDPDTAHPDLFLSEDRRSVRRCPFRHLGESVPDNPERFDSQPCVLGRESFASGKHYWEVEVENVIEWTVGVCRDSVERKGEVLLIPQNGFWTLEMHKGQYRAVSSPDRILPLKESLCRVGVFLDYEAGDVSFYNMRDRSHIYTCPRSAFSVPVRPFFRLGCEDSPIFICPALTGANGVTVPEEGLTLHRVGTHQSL
BTN2A1 (WT) and BTN3A1 (WT) co-expressed on NIH-3T3 cells (human), sequence (chain, as listed by the source, chain 2 of 2): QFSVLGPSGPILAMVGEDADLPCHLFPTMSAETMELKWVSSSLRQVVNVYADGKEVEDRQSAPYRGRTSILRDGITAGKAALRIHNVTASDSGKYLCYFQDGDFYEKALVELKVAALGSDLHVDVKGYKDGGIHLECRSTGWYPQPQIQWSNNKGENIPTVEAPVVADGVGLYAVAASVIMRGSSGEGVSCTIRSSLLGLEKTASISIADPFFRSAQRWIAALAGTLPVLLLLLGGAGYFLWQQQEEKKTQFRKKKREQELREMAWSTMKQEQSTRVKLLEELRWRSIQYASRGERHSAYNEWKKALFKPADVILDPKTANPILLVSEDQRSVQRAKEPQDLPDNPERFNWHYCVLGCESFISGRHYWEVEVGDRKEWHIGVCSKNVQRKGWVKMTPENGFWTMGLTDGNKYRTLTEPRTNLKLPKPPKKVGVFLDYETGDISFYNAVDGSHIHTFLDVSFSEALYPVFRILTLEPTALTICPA

[4] = target: BTN2A1-BTN3A1-zipper ectodomain complex (construct #1, long linker version with high affinity zippers) (human); experiment: SPR, equilibrium; BTN2A1-BTN3A1 ectodomain complex immobilised, soluble TCR injected
[5] = target: BTN2A1 (WT) and BTN3A1 (WT) co-expressed on NIH-3T3 cells (human) (UniProt Q7KYR7); experiment: flow cytometry on NIH-3T3 cells co-transfected with BTN2A1 WT and BTN3A1 WT, no zoledronate
[6] = target: full-length human BTN3A1 on transfected cells (human) (UniProt O00481); experiment: flow cytometry, γδTCR tetramer-PE on BTN3A1-transfected NIH-3T3 cells treated with isotype IgG1κ (black number); SAv control 25
full-length human BTN3A1 on transfected cells (human), sequence (O00481 30-513): as the sequence (chain, as listed by the source, chain 2 of 2) above

[7] = target: BTN2A1 (Ser44-Arg) and BTN3A1 (Glu106-Ala) co-expressed on NIH-3T3 cells (human) (UniProt Q7KYR7); experiment: flow cytometry on NIH-3T3 cells co-transfected with BTN2A1 Ser44-Arg and BTN3A1 Glu106-Ala, no zoledronate
BTN2A1 (Ser44-Arg) and BTN3A1 (Glu106-Ala) co-expressed on NIH-3T3 cells (human), sequence (Q7KYR7 29-527 S72R limits assumed, chain 1 of 2): as the sequence (Q7KYR7 29-527, chain 1 of 2) above, with S44R counted along it
BTN2A1 (Ser44-Arg) and BTN3A1 (Glu106-Ala) co-expressed on NIH-3T3 cells (human), sequence (chain, as listed by the source S44R E106A S44R E106A limits assumed, chain 2 of 2): as the sequence (chain, as listed by the source, chain 2 of 2) above, with E106A counted along it

[8] = target: BTN2A1 (WT) and BTN3A1 (Glu106-Ala) co-expressed on NIH-3T3 cells (human) (UniProt Q7KYR7); experiment: flow cytometry on NIH-3T3 cells co-transfected with BTN2A1 WT and BTN3A1 Glu106-Ala, zoledronate (100 µM)
BTN2A1 (WT) and BTN3A1 (Glu106-Ala) co-expressed on NIH-3T3 cells (human), sequence (Q7KYR7 29-527 limits assumed, chain 1 of 2): as the sequence (Q7KYR7 29-527, chain 1 of 2) above
BTN2A1 (WT) and BTN3A1 (Glu106-Ala) co-expressed on NIH-3T3 cells (human), sequence (chain, as listed by the source E106A E106A limits assumed, chain 2 of 2): as the sequence (chain, as listed by the source, chain 2 of 2) above, with E106A counted along it

[9] = target: BTN2A1 (Ser44-Arg) and BTN3A1 (WT) co-expressed on NIH-3T3 cells (human) (UniProt Q7KYR7); experiment: flow cytometry on NIH-3T3 cells co-transfected with BTN2A1 Ser44-Arg and BTN3A1 WT, zoledronate (100 µM)
BTN2A1 (Ser44-Arg) and BTN3A1 (WT) co-expressed on NIH-3T3 cells (human), sequence (Q7KYR7 29-527 S72R, chain 1 of 2): as the sequence (Q7KYR7 29-527, chain 1 of 2) above, with S44R counted along it
BTN2A1 (Ser44-Arg) and BTN3A1 (WT) co-expressed on NIH-3T3 cells (human), sequence (chain, as listed by the source S44R S44R, chain 2 of 2): as the sequence (chain, as listed by the source, chain 2 of 2) above

[10] = target: BTN2A1 (Ser44-Arg) and BTN3A1 (Glu106-Ala) co-expressed on NIH-3T3 cells (human) (UniProt Q7KYR7); experiment: flow cytometry on NIH-3T3 cells co-transfected with BTN2A1 Ser44-Arg and BTN3A1 Glu106-Ala, zoledronate (100 µM)
[11] = target: BTN2A1 (WT) and BTN3A1 (Glu106-Ala) co-expressed on NIH-3T3 cells (human) (UniProt Q7KYR7); experiment: flow cytometry on NIH-3T3 cells co-transfected with BTN2A1 WT and BTN3A1 Glu106-Ala, no zoledronate
[12] = target: BTN2A1 (Ser44-Arg) and BTN3A1 (WT) co-expressed on NIH-3T3 cells (human) (UniProt Q7KYR7); experiment: flow cytometry on NIH-3T3 cells co-transfected with BTN2A1 Ser44-Arg and BTN3A1 WT, no zoledronate

full-length human BTN3A1 on transfected cells pre-treated (cross-linked) with anti-BTN3A mAb clone 20.1 (human), sequence (O00481 30-513): as the sequence (chain, as listed by the source, chain 2 of 2) above

B4: G115 Vγ9Vδ2+ TCR tetramer Lys108γ-Ala (TCR, from a related filing, V domains shown)
V domain 1: AIELVPEHQTVPVSIGVPATLRCSMKGEAIGNYYINWYRKTQGNTMTFIYREKDIYGPGFKDNFQGDIDIAKNLAVLKILAPSERDEGSYYCACDTLGMGGEYTDKLIFGKGTRVTVEP
V domain 2: AGHLEQPQISSTKTLSKTARLECVVSGITISATSVYWYRERPGEVIQFLVSISYDGTVRKESGIPSGKFEVDRIPETSTSTLTIHNVEKQDIATYYCALWEAQQELGAKIKVFGPGTKLIITD
MFI of PE (GFP+ gate) [6]: 25

B5: G115 Vγ9Vδ2+ TCR tetramer with combined His85γ-Ala and Glu52δ-Ala mutations (TCR, from a related filing, V domains shown)
V domain 1: AIELVPEHQTVPVSIGVPATLRCSMKGEAIGNYYINWYRKTQGNTMTFIYRAKDIYGPGFKDNFQGDIDIAKNLAVLKILAPSERDEGSYYCACDTLGMGGEYTDKLIFGKGTRVTVEP
V domain 2: AGHLEQPQISSTKTLSKTARLECVVSGITISATSVYWYRERPGEVIQFLVSISYDGTVRKESGIPSGKFEVDRIPETSTSTLTIANVEKQDIATYYCALWEAQQELGKKIKVFGPGTKLIITD
MFI of PE (GFP+ gate) [6]: 38

The remaining lines, values ahead:

% cells in the FRET gate [1]: 34%
Kd [2]: 81 µM
B1: soluble G115 Vγ9Vδ2+ TCR Lys53δ-Ala (TCR, from a related filing)
TCR delta: AIELVPEHQTVPVSIGVPATLRCSMKGEAIGNYYINWYRKTQGNTMTFIYREADIYGPGFKDNFQGDIDIAKNLAVLKILAPSERDEGSYYCACDTLGMGGEYTDKLIFGKGTRVTVEPRSQPHTKPSVFVMKNGTNVACLVKEFYPKDIRINLVSSKKITEFDPAIVISPSGKYNAVKLGKYEDSNSVTCSVQHDNKTVHSTDFEVKTDSTDHVKPKETENTKQPSKSCHKPKAIVHTEK
TCR gamma: AGHLEQPQISSTKTLSKTARLECVVSGITISATSVYWYRERPGEVIQFLVSISYDGTVRKESGIPSGKFEVDRIPETSTSTLTIHNVEKQDIATYYCALWEAQQELGKKIKVFGPGTKLIITDKQLDADVSPKPTIFLPSIAETKLQKAGTYLCLLEKFFPDVIKIHWEEKKSNTILGSQEGNTMKTNDTYMKFSWLTVPEKSLDKEHRCIVRHENNKNGVDQEIIFPPIKTDVITMDPKDNCSKDANDTLLLQLTNTSA

mean fluorescence intensity of TCR tetramer (black gate) [3]: 1700
Kd [4]: 740 µM
mean fluorescence intensity of TCR tetramer (black gate) [5]: 635
MFI of PE (GFP+ gate) [6]: 33
mean fluorescence intensity of TCR tetramer (black gate) [7]: 11300
mean fluorescence intensity of TCR tetramer (black gate) [8]: 23300
mean fluorescence intensity of TCR tetramer (black gate) [9]: 28100
mean fluorescence intensity of TCR tetramer (black gate) [10]: 26600
mean fluorescence intensity of TCR tetramer (black gate) [11]: 7210
mean fluorescence intensity of TCR tetramer (black gate) [12]: 10800
B2: soluble G115 Vγ9Vδ2+ TCR His85γ-Ala (TCR, from a related filing, V domains shown)
V domain 1: AIELVPEHQTVPVSIGVPATLRCSMKGEAIGNYYINWYRKTQGNTMTFIYREKDIYGPGFKDNFQGDIDIAKNLAVLKILAPSERDEGSYYCACDTLGMGGEYTDKLIFGKGTRVTVEP
V domain 2: AGHLEQPQISSTKTLSKTARLECVVSGITISATSVYWYRERPGEVIQFLVSISYDGTVRKESGIPSGKFEVDRIPETSTSTLTIANVEKQDIATYYCALWEAQQELGKKIKVFGPGTKLIITD

Kd [4]: 140 µM
MFI of PE (GFP+ gate) [6]: 32
Kd [2]: 93 µM
B3: soluble G115 Vγ9Vδ2+ TCR Glu52δ-Ala (TCR, from a related filing, V domains shown)
V domain 1: AIELVPEHQTVPVSIGVPATLRCSMKGEAIGNYYINWYRKTQGNTMTFIYRAKDIYGPGFKDNFQGDIDIAKNLAVLKILAPSERDEGSYYCACDTLGMGGEYTDKLIFGKGTRVTVEP
V domain 2: AGHLEQPQISSTKTLSKTARLECVVSGITISATSVYWYRERPGEVIQFLVSISYDGTVRKESGIPSGKFEVDRIPETSTSTLTIHNVEKQDIATYYCALWEAQQELGKKIKVFGPGTKLIITD
